Experimental data published in the supplement of paper PMC11136658.

Test system: peptide library, one residue held at a place counted from the Y acceptor
Experiment: relative phosphorylation of the sub-library (ratio to the mean residue at this position); higher = residue favoured
Procedure, shortened: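 Purified recombinant kinases were given 50 μM ATP with γ-32P-ATP and biotinylated Tyr-centred peptide library mixtures for 90 min in 384-well plates. Peptides bound to streptavidin membranes were rinsed and quantified by phosphorimaging, and intensities were normalized per position by the sum of the 18 randomized residues (16 with the Ser/Thr-free library) and multiplied by that number. The reported values are phosphorylation relative to the mean randomized residue.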

FGFR3, construct: aa397-end, human, sequence (P22607 397-806, looked up): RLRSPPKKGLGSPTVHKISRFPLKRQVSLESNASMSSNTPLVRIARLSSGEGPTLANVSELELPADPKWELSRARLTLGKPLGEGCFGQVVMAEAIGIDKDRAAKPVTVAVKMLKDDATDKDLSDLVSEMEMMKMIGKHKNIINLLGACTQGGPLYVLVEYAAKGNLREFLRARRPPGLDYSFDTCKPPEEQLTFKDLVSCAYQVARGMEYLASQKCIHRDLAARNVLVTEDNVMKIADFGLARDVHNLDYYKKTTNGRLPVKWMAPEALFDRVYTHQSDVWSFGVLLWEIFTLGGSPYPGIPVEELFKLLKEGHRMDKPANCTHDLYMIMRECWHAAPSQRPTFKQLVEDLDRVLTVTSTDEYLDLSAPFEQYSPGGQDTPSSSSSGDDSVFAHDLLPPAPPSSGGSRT

FGFR3, construct: aa397-end, human (from UniProt P22607)
relative phosphorylation
Settings	at +1	at +2	at +3	at +4	at +5	at -1	at -2	at -3	at -4	at -5
A fixed	0.858	0.5	0.465	0.794	1.13	0.737	0.867	0.899	1.1	0.986
D fixed	0.4	1.08	0.618	1.07	1.09	2.51	1.3	1.51	1.22	1.19
E fixed	0.764	1.5	0.479	1.15	0.944	1.71	1.58	1.73	1.42	1.01
F fixed	1.96	1.73	1.58	1.17	1.08	0.94	0.733	0.807	0.933	0.929
G fixed	0.32	0.27	0.378	0.913	1.22	0.452	1.05	0.939	1.25	1.15
H fixed	1.7	0.959	0.873	1.1	0.962	1.47	1.2	1.17	1.07	1.2
I fixed	1.19	0.857	2.07	0.872	0.763	1.1	0.57	0.533	0.738	0.651
K fixed	0.452	0.502	0.297	0.913	0.753	0.438	1.05	0.976	0.935	1.27
L fixed	1.01	1.46	2.18	0.962	0.881	1.05	0.863	0.663	0.759	0.75
M fixed	1.17	1.46	2.26	1.06	1.05	0.766	0.761	0.747	0.901	0.854
N fixed	0.458	1.01	0.416	0.828	0.943	1.33	1.24	1.35	0.924	1.15
P fixed	1.1	0.528	0.562	1.13	1.22	0.786	0.951	0.904	1.2	1.08
Q fixed	0.865	0.85	0.68	1.05	0.923	0.896	1.14	1.01	1.1	1.01
R fixed	0.577	0.607	0.428	0.953	0.814	0.396	1.1	1.04	1.01	1.27
S fixed	0.709	0.566	0.481	0.931	1.07	0.614	1.09	1.17	0.867	0.971
T fixed	0.867	0.712	0.604	0.814	1.03	0.797	1.01	0.946	0.704	0.82
V fixed	1.59	0.952	1.61	0.948	0.939	0.885	0.732	0.595	0.7	0.682
W fixed	2	2.47	2.02	1.34	1.18	1.14	0.767	1.02	1.17	1.02
pThr fixed	0.874	1.88	0.666	0.864	0.943	1.61	1.28	1.44	1.2	1.16
pTyr fixed	3.07	3.28	0.631	0.962	1	3.24	1.85	1.83	1.55	1.31

FGR, construct: Full length, human (from UniProt P09769)
relative phosphorylation
Settings	at +1	at +2	at +3	at +4	at +5	at -1	at -2	at -3	at -4	at -5
A fixed	2.2	1.05	0.869	0.85	0.72	0.929	0.952	0.88	1.03	0.985
D fixed	0.746	0.588	0.464	0.599	0.901	1.07	1.48	1.52	1.29	1.1
E fixed	0.732	0.949	0.432	0.759	0.875	1.89	1.37	1.52	1.36	0.85
F fixed	0.643	1.12	2.33	1.21	1.25	0.601	0.711	0.915	1.07	1.07
G fixed	2.67	0.888	0.927	1.31	0.896	0.558	1.5	1.15	1.15	1.24
H fixed	0.762	0.846	0.969	0.953	0.936	1.45	0.995	0.999	0.933	0.966
I fixed	0.827	0.906	1.3	0.792	0.71	1.86	0.626	0.635	0.829	0.907
K fixed	0.485	0.947	0.664	1.16	1.27	0.32	0.641	0.792	0.856	0.991
L fixed	0.669	0.903	0.954	0.884	0.831	1.02	0.747	0.746	1.07	0.939
M fixed	1.01	1.02	0.806	1.05	0.751	0.754	0.576	0.799	0.83	0.945
N fixed	0.757	1.02	0.666	0.928	1.14	0.683	1.56	1.26	0.798	1.06
P fixed	0.226	0.839	1.02	1.2	0.977	2.09	0.878	1.02	1.17	1.15
Q fixed	0.959	0.987	0.726	1.06	0.95	0.753	1.16	0.922	1.04	0.944
R fixed	0.519	1.22	0.98	1.39	1.4	0.291	0.738	0.883	0.875	1.1
S fixed	1.52	1.14	0.882	0.862	1.11	0.572	1.43	1.19	0.841	0.875
T fixed	1.14	1.2	0.795	0.893	1.06	1.21	1.03	0.908	0.681	0.748
V fixed	0.955	0.904	1.05	0.781	0.712	1.38	0.738	0.594	0.733	0.749
W fixed	1.17	1.48	2.17	1.33	1.52	0.556	0.859	1.26	1.45	1.38
pThr fixed	1.35	1.11	0.787	0.528	0.963	1.12	1.48	1.74	1.05	1.02
pTyr fixed	1.57	1.13	0.585	0.593	0.94	0.966	2.02	1.99	1.38	1.05
